Measurements: patent US20260028391A1 (HUMABS BIOMED, published 2026)

Experiments:
RSV F B N201S = molecular target: T1, RSV F B N201S (RSV B); test: FACS, % binding to RSV F B variants
T1 construct: whole, on cells

RSV F B K68N-N208S = molecular target: T2, RSV F B K68N-N208S (RSV B); test: FACS, % binding to RSV F B variants
T2 construct: whole, on cells

RSV F B, B Ref = molecular target: T3, RSV F B, B Ref (RSV B); test: FACS, % binding to RSV F B variants
T3 construct: whole, on cells

RSV F B K68N-N201S = molecular target: T4, RSV F B K68N-N201S (RSV B); test: FACS, % binding to RSV F B variants
T4 construct: whole, on cells

RSV F B N208S = molecular target: T5, RSV F B N208S (RSV B); test: FACS, % binding to RSV F B variants
T5 construct: whole, on cells; also called mutant N208S

RSV F B S443P = molecular target: T6, RSV F B S443P (RSV B); test: FACS, % binding to RSV F B variants
T6 construct: whole, on cells; also called mutant S443P

[1] = molecular target: RSV A fusion glycoprotein (F), virus of the neutralisation assays of Tables 54 and 57 (RSV A); test: cell-based or functional assay
RSV-A F = molecular target: T7, RSV-A F (RSV A); test: BLI
T7 construct: also called RSV F A

RSV-B F = molecular target: T8, RSV-B F (RSV B); test: BLI
T8 construct: also called RSV F B

[2] = molecular target: fusion glycoprotein of the MPV D280 used in the neutralization assay of Example 3 (metapneumovirus (strain )); test: cell-based or functional assay
[3] = molecular target: fusion glycoprotein of the RSV used in the neutralization assay of Example 1 (respiratory syncytial virus (strain not …)); test: cell-based or functional assay
[4] = molecular target: fusion glycoprotein (F) of the MPV (non-D280N) used in the GFP-based neutralization assay of Table 23 (metapneumovirus); test: cell-based or functional assay
[5] = molecular target: fusion glycoprotein (F) of the RSV used in the GFP-based neutralization assay of Table 23 (respiratory syncytial virus); test: cell-based or functional assay
[6] = molecular target: RSV fusion glycoprotein (RSV-F) (respiratory syncytial virus); test: biolayer interferometry (BLI), rIgG1 with M428L/N434S
[7] = molecular target: fusion glycoprotein (F) of RSV A GFP (Tables 41 and 42) (respiratory syncytial virus A); test: cell-based or functional assay
[8] = molecular target: fusion glycoprotein (F) of RSV B GFP (Tables 41 and 42) (respiratory syncytial virus B); test: cell-based or functional assay
[9] = molecular target: fusion glycoprotein (F) of MPV A GFP (Tables 41 and 43) (metapneumovirus A); test: cell-based or functional assay

B1: MPK176-v4.3 (antibody, V domains shown)
VH: QVQLVQSGAEVKKPGASVRVSCKASGYTLTAYGISWVRQAPGQGLEWMGWISPKHGSTHYAQRFQGRVTMTTDTSTSTAYMELRSLRPDDTAVYFCAREGVDIMAVPWYFDYWGQGTLVAVSS
VL: SYVLTQPPSVSVAPGQTARISCGGNNIGSKSVHWYQQKPGQAPVVVVYDDSKRPSGIPERFSGSNSGNTATLTISGVEAGDEADYFCQVWDSATDHWVFGGGTKLTVL
- % binding (RSV F B N201S): 60.6%
- % binding (RSV F B K68N-N208S): 59.3%
- % binding (RSV F B, B Ref): 34.2%
- % binding (RSV F B K68N-N201S): 60.4%
- % binding (RSV F B N208S): 61.2%
- % binding (RSV F B S443P): 29.8%
- IC50, neutralization of RSVA [1]: 0.00435 µg/mL
- Kd (RSV-A F): 0.139 nM
- Kd (RSV-B F): 0.0117 nM

B2: MPK158 (antibody, V domains shown)
VH: EVQLVESGGGLVKPGGSLRLSCAASGFSISGFYMIWIRQAPGKGLEWISDISASSSYIDYADSVKGRFTISRDNGQNTVHLLMNNLRADDTGVYYCAREQTPSPGPFDLWGQGTLVTVST
VL: QPVLTQPPSVSGAPGQRVTISCTGRSSNIGAGYDVHWYQHLPGTSPKLLIYRNSNRPSGVPDRFSGSTSGTSASLAITGLQADDEADYYCQAYDRILGGWAFGGGTKLTVL
- MPV D280 Neutralization - IC50 [2]: 0.006 µg/mL
- RSV Neutralization - IC50 [3]: 0.0182 µg/mL

B3: MPH12-v17 (VH-FRGL-D62E/VL-D25S) (antibody, V domains shown)
VH: QVQLVESGGGLVKPGGSLRLSCAASGFTFSGFYMKWIRQAPGKGLEWVSSISASGSYTNYAESVEGRFTISRDNAKNSLYLQMNSLRAEDTAVYYCARGDSYCGASACHGEFFHKWGQGTLVTVSS
VL: QSVLTQPPSVSGAPGQRVTISCTGSSSNIGADFDVHWYQQLPGTAPKLLIYGNINRPSGVPDRFSGSRSGTSAFLAITRLQAEDEADYYCQSYDRSLHYVFGAGTKVTVL
notes: also called MPH12 VH-FRGL-D62E / MPH12 VL-D25S
- MPV IC50 (ng/mL), GFP-based in vitro neutralization [4]: 30.4 ng/mL
- RSV IC 50 (ng/mL), GFP-based in vitro neutralization [5]: 44.9 ng/mL
- Kd [6]: 0.39 nM

B4: MPH12-rIgG1-LS (antibody, V domains shown)
VH: QVQLVESGGGLVKPGGSLRLSCVASGFTFSGFYMKWIRQAPGKGLEWVSSISASGSYTNYADSVEGRFTVSRDNAKNSLFLLMSSLRAEDTAVYYCARGDSYCGASACHGEFFHKWGQGTLVTVSS
VL: QSVLTQPPSVSGAPGQRVTISCTGSDSNIGADFDVHWYQQLPGTAPKLLIYGNINRPSGVPDRFSGSRSGTSAFLAITRLQAEDEADYYCQSYDRSLHYVFGAGTKVTVL
- IC50 (ng/ml), RSV A GFP neutralization [7]: 6.55 ng/mL
- IC50 (ng/ml), RSV B GFP neutralization [8]: 5.23 ng/mL
- IC50 (ng/ml), MPV A GFP neutralization [9]: 13 ng/mL

B5: MPH12-v35 (VH-FRGL-D62E/VL-FRGL-D25S) (antibody, V domains shown)
VH: QVQLVESGGGLVKPGGSLRLSCAASGFTFSGFYMKWIRQAPGKGLEWVSSISASGSYTNYAESVEGRFTISRDNAKNSLYLQMNSLRAEDTAVYYCARGDSYCGASACHGEFFHKWGQGTLVTVSS
VL: QSVLTQPPSVSGAPGQRVTISCTGSSSNIGADFDVHWYQQLPGTAPKLLIYGNINRPSGVPDRFSGSKSGTSASLAITGLQAEDEADYYCQSYDRSLHYVFGTGTKVTVL
- MPV IC50 (ng/mL), GFP-based in vitro neutralization [4]: 39.9 ng/mL
- RSV IC 50 (ng/mL), GFP-based in vitro neutralization [5]: 57.5 ng/mL
- Kd [6]: 0.46 nM

B6: MPH12-v29 (VH-FRGL-D62E/VL-S26A) (antibody, V domains shown)
VH: QVQLVESGGGLVKPGGSLRLSCAASGFTFSGFYMKWIRQAPGKGLEWVSSISASGSYTNYAESVEGRFTISRDNAKNSLYLQMNSLRAEDTAVYYCARGDSYCGASACHGEFFHKWGQGTLVTVSS
VL: QSVLTQPPSVSGAPGQRVTISCTGSDANIGADFDVHWYQQLPGTAPKLLIYGNINRPSGVPDRFSGSRSGTSAFLAITRLQAEDEADYYCQSYDRSLHYVFGAGTKVTVL
notes: also called MPH12 VH-FRGL-D62E / MPH12 VL-S26A
- MPV IC50 (ng/mL), GFP-based in vitro neutralization [4]: 35.2 ng/mL
- RSV IC 50 (ng/mL), GFP-based in vitro neutralization [5]: 60.3 ng/mL
- Kd [6]: 0.34 nM

B7: MPH12-v34 (VH-FRGL-S63A/VL-FRGL-D25S) (antibody, V domains shown)
VH: QVQLVESGGGLVKPGGSLRLSCAASGFTFSGFYMKWIRQAPGKGLEWVSSISASGSYTNYADAVEGRFTISRDNAKNSLYLQMNSLRAEDTAVYYCARGDSYCGASACHGEFFHKWGQGTLVTVSS
VL: QSVLTQPPSVSGAPGQRVTISCTGSSSNIGADFDVHWYQQLPGTAPKLLIYGNINRPSGVPDRFSGSKSGTSASLAITGLQAEDEADYYCQSYDRSLHYVFGTGTKVTVL
- MPV IC50 (ng/mL), GFP-based in vitro neutralization [4]: 31.9 ng/mL
- RSV IC 50 (ng/mL), GFP-based in vitro neutralization [5]: 48.6 ng/mL
- Kd [6]: 0.5 nM
